Experimental findings from patent publication US20090285803A1 (published 2009) are described below.

The chains are these.
T1: Nogo Receptor (human, UniProt Q9BZR6 27-447)
T1 construct: whole, on cells; also called NgR; NgR1
T1 sequence (looked up): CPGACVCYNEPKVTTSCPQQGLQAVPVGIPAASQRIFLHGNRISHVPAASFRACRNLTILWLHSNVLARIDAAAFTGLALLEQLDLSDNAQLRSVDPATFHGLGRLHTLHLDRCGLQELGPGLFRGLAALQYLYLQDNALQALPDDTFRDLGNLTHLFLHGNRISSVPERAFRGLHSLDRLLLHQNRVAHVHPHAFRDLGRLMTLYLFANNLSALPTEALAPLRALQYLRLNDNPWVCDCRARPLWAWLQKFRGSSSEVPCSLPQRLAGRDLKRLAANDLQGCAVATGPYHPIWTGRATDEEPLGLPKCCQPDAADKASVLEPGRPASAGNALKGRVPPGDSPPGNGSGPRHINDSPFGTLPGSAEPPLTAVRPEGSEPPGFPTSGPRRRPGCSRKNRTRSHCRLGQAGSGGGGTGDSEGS

B1: Homo sapiens leukocyte immunoglobulin-like receptor, subfamily B (with TM and ITIM domains), member 2 (LILRB2) (receptor)
chain: QTGTIPKPTLWAEPDSVITQGSPVTLSCQGSLEAQEYRLYREKKSASWITRIRPELVKNGQFHIPSITWEHTGRYGCQYYSRARWSELSDPLVLVMTGAYPKPTLSAQPSPVVTSGGRVTLQCESQVAFGGFILCKEGEDEHPQCLNSQPHARGSSRAIFSVGPVSPNRRWSHRCYGYDLNSPYVWSSPSDLLELLVPGVSKKPSLSVQPGPVVAPGESLTLQCVSDVGYDRFVLYKEGERDLRQLPGRQPQAGLSQANFTLGPVSRSYGGQYRCYGAYNLSSEWSAPSDPLDILITGQIHGTPFISVQPGPTVASGENVTLLCQSWRQFHTFLLTKAGAADAPLRLRSIHEYPKYQAEFPMSPVTSAHAGTYRCYGSLNSDPYLLSHPSEPLELVVSGPSMGSSPPPTGPISTPAGPEDQPLTPTGSDPQSGLGRHLGVVIGILVAVVLLLLLLLLLFLILRHRRQGKHWTSTQRKADFQHPAGAVGPEPTDRGLQWRSSPAADAQEENLYAAVKDTQPEDGVEMDTRAAASEAPQDVTYAQLHSLTLRRKATEPPPSQEREPPAEPSIYATLAIH
notes: Full-length human cDNA clone expressed in COS7 cells; also called MIG10; ILT4
B2: AP-Nogo66 (ligand, UniProt Q9NQC3 1055-1120, looked up)
chain: RIYKGVIQAIQKSDEGHPFRAYLESEVAISEELVQKYSNSALGHVNCTIKELRRLFLVDDLVDSLK
notes: Produced in conditioned medium of 293 cells; also called Alkaline Phosphatase-Nogo66 fusion; not shown: Alkaline Phosphatase (AP)

The target in the test “AP-Nogo66” is B2. Briefly: expression cloning; AP-fusion bait (20-50 nM) on transfected COS7 cells, chromogenic AP staining. The source says: (§1) To identify novel receptors for inhibitory myelin proteins, an expression cloning approach was taken. As bait, constructs were generated that fused Alkaline Phosphatase (AP) to the N- and/or C-terminus of the following characterized myelin inhibitors (human cDNA used): Nogo66, two additional inhibitory domains of NogoA (NiRD2 and NiG20) (Oertle T, J Neurosci. 2003, 23(13): 5393-406), MAG, and OMgp. These constructs were transfected into 293 cells to produce conditioned medium (in DMEM/2% FBS) containing the bait proteins. The cDNA library used in the screen was comprised of full-length human cDNA clones in expression-ready vectors generated by Origene. These cDNAs were compiled, arrayed, and pooled. Pools of approximately 100 cDNA's were transiently transfected into COS7 cells.
(§2) In particular, on Day 1, COS7 cells were plated at a density of 85, 000 cells per well in 12-well plates. On Day 2, 1 mg of pooled cDNA's were transfected per well using the lipid-based transfection reagent FuGENE 6 (Roche). On Day 4, screening was performed. […] The cells were washed once in AP Buffer (100 mM NaCl, 5 mM MgCl₂, 100 mM Tris pH 9.5), and incubated in chromogenic substrate (Western Blue, Promega), and analyzed for presence of reaction product one hour after incubation, and again after overnight incubation. […]

A further test concerns the target T1, Nogo Receptor. The description is as above.
Description: as §1, §2

Take B1: the binding result with AP-Nogo66 is “binds”.

Consider B2, for which, in the test with Nogo Receptor, the binding result is listed as “binds”.
